{"source": "paper PMC9482650", "about": "“Quantitative fragmentomics allow affinity mapping of interactomes” (Nature Communications, 2022)", "note": "Numbering of substitutions follows the chain as printed."}
{"molecular_target": "ARHGEF12, Q9NZN5-2", "sequence (Q9NZN5 other isoform, or with tags, fused parts or gaps)": "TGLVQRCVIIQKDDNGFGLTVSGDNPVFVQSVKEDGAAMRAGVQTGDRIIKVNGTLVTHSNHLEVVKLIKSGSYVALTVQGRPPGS", "assay": "holdup assay", "parameters": "key: below the threshold = too weak to quantify, mostly under pKd 3.1 to 4", "settings": "plain residues with an end cap or a label only (N-terminal biotin on a linker: ado-ado)"}
{"binder": "EAVTVESTSL", "note": "[SLC22A11, Q9NSA0]", "pKd": 5.17}
{"molecular_target": "DLG1_2, Q12959", "sequence (Q12959 314-412)": "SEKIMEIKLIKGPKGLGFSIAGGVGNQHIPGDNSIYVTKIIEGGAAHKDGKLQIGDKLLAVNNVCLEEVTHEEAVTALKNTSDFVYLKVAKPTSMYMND", "assay": "holdup assay", "parameters": "key: below the threshold = too weak to quantify, mostly under pKd 3.1 to 4", "settings": "plain residues with an end cap or a label only (N-terminal biotin on a linker: ado-ado)"}
{"binder": "EAVTVESTSL", "note": "[SLC22A11, Q9NSA0]", "pKd": "below the threshold"}
{"molecular_target": "T1, DLG3_1, Q92796", "T1 sequence (Q92796 125-227, limits assumed, looked up)": "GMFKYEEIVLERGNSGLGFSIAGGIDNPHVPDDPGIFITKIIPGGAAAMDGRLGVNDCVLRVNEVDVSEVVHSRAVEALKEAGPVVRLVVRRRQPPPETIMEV", "assay": "holdup assay", "parameters": "key: below the threshold = too weak to quantify, mostly under pKd 3.1 to 4", "settings": "plain residues with an end cap or a label only (N-terminal biotin on a linker: ado-ado)"}
{"binder": "EAVTVESTSL", "note": "[SLC22A11, Q9NSA0]", "pKd": "below the threshold"}
{"molecular_target": "T2, DLG3_3, Q92796", "T2 sequence (Q92796 374-475, limits assumed, looked up)": "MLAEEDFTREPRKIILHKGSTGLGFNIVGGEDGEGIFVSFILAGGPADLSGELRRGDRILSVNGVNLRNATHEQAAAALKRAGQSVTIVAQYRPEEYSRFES", "assay": "holdup assay", "parameters": "key: below the threshold = too weak to quantify, mostly under pKd 3.1 to 4", "settings": "plain residues with an end cap or a label only (N-terminal biotin on a linker: ado-ado)"}
{"binder": "EAVTVESTSL", "note": "[SLC22A11, Q9NSA0]", "pKd": 3.6}
{"molecular_target": "DLG5_1, Q8TDM6", "sequence (Q8TDM6 617-713)": "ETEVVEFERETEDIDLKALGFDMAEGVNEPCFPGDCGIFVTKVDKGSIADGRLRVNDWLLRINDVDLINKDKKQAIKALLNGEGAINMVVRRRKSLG", "assay": "holdup assay", "parameters": "key: below the threshold = too weak to quantify, mostly under pKd 3.1 to 4", "settings": "plain residues with an end cap or a label only (N-terminal biotin on a linker: ado-ado)"}
{"binder": "EAVTVESTSL", "note": "[SLC22A11, Q9NSA0]", "pKd": "below the threshold"}
{"molecular_target": "T3, DVL3, Q92997", "T3 sequence (Q92997 244-331, limits assumed, looked up)": "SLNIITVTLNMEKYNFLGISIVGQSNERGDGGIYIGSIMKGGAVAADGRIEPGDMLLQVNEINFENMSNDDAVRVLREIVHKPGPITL", "assay": "holdup assay", "parameters": "key: below the threshold = too weak to quantify, mostly under pKd 3.1 to 4", "settings": "plain residues with an end cap or a label only (N-terminal biotin on a linker: ado-ado)"}
{"binder": "EAVTVESTSL", "note": "[SLC22A11, Q9NSA0]", "pKd": "below the threshold"}
{"molecular_target": "FRMPD2_1, Q68DX3", "sequence (Q68DX3 770-861)": "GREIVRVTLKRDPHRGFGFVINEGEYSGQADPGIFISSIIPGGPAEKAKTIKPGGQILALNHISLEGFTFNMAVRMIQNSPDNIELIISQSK", "assay": "holdup assay", "parameters": "key: below the threshold = too weak to quantify, mostly under pKd 3.1 to 4", "settings": "plain residues with an end cap or a label only (N-terminal biotin on a linker: ado-ado)"}
{"binder": "EAVTVESTSL", "note": "[SLC22A11, Q9NSA0]", "pKd": "below the threshold"}
{"molecular_target": "GOPC, Q9HD26", "assay": "holdup assay", "parameters": "key: below the threshold = too weak to quantify, mostly under pKd 3.1 to 4", "settings": "plain residues with an end cap or a label only (N-terminal biotin on a linker: ado-ado)"}
{"binder": "EAVTVESTSL", "note": "[SLC22A11, Q9NSA0]", "pKd": 4.18}
{"molecular_target": "GORASP2, Q9H8Y8", "assay": "holdup assay", "parameters": "key: below the threshold = too weak to quantify, mostly under pKd 3.1 to 4", "settings": "plain residues with an end cap or a label only (N-terminal biotin on a linker: ado-ado)"}
{"binder": "EAVTVESTSL", "note": "[SLC22A11, Q9NSA0]", "pKd": "below the threshold"}
{"molecular_target": "GRASP, Q7Z6J2", "sequence (Q7Z6J2 96-193)": "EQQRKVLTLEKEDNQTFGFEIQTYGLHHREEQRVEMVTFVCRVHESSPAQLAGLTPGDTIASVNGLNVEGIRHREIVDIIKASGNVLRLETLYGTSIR", "assay": "holdup assay", "parameters": "key: below the threshold = too weak to quantify, mostly under pKd 3.1 to 4", "settings": "plain residues with an end cap or a label only (N-terminal biotin on a linker: ado-ado)"}
{"binder": "EAVTVESTSL", "note": "[SLC22A11, Q9NSA0]", "pKd": 5.36}
{"molecular_target": "GRID2IP_1, A4D2P6", "sequence (A4D2P6 1-87)": "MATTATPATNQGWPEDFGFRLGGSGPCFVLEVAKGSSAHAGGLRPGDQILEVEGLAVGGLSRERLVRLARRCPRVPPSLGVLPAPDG", "assay": "holdup assay", "parameters": "key: below the threshold = too weak to quantify, mostly under pKd 3.1 to 4", "settings": "plain residues with an end cap or a label only (N-terminal biotin on a linker: ado-ado)"}
{"binder": "EAVTVESTSL", "note": "[SLC22A11, Q9NSA0]", "pKd": "below the threshold"}
{"molecular_target": "Inadl_1, Q8NI35", "sequence (Q8NI35 113-229)": "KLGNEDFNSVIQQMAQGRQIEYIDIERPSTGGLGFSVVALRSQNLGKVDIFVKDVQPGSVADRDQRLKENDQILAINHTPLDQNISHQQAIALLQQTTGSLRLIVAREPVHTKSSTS", "assay": "holdup assay", "parameters": "key: below the threshold = too weak to quantify, mostly under pKd 3.1 to 4", "settings": "plain residues with an end cap or a label only (N-terminal biotin on a linker: ado-ado)"}
{"binder": "EAVTVESTSL", "note": "[SLC22A11, Q9NSA0]", "pKd": "below the threshold"}
{"molecular_target": "Inadl_10, Q8NI35", "sequence (Q8NI35 1673-1763)": "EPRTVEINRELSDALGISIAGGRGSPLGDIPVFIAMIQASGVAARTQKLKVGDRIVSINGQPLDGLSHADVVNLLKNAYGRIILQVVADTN", "assay": "holdup assay", "parameters": "key: below the threshold = too weak to quantify, mostly under pKd 3.1 to 4", "settings": "plain residues with an end cap or a label only (N-terminal biotin on a linker: ado-ado)"}
{"binder": "EAVTVESTSL", "note": "[SLC22A11, Q9NSA0]", "pKd": "below the threshold"}
{"molecular_target": "Inadl_5, Q8NI35", "sequence (Q8NI35 673-780)": "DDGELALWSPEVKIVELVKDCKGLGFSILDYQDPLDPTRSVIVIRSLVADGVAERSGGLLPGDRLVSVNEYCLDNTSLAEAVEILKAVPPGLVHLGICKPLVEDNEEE", "assay": "holdup assay", "parameters": "key: below the threshold = too weak to quantify, mostly under pKd 3.1 to 4", "settings": "plain residues with an end cap or a label only (N-terminal biotin on a linker: ado-ado)"}
{"binder": "EAVTVESTSL", "note": "[SLC22A11, Q9NSA0]", "pKd": "below the threshold"}
{"molecular_target": "Inadl_9, Q8NI35", "sequence (Q8NI35 1530-1615)": "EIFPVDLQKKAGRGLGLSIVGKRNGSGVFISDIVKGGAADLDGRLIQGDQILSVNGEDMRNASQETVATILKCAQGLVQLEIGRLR", "assay": "holdup assay", "parameters": "key: below the threshold = too weak to quantify, mostly under pKd 3.1 to 4", "settings": "plain residues with an end cap or a label only (N-terminal biotin on a linker: ado-ado)"}
{"binder": "EAVTVESTSL", "note": "[SLC22A11, Q9NSA0]", "pKd": "below the threshold"}
{"molecular_target": "T4, LIN7A, O14910", "T4 sequence (O14910 103-200, limits assumed, looked up)": "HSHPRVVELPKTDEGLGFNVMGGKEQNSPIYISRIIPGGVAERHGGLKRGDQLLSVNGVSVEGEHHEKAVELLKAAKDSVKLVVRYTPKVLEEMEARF", "assay": "holdup assay", "parameters": "key: below the threshold = too weak to quantify, mostly under pKd 3.1 to 4", "settings": "plain residues with an end cap or a label only (N-terminal biotin on a linker: ado-ado)"}
{"binder": "EAVTVESTSL", "note": "[SLC22A11, Q9NSA0]", "pKd": "below the threshold"}
{"molecular_target": "T5, LIN7B, Q9HAP6", "T5 sequence (Q9HAP6 88-185, limits assumed, looked up)": "T4 sequence (O14910 103-200, limits assumed, looked up) with S2A, V20I, I35V, E42D, H65Q, K77Q, D78G, K89R", "assay": "holdup assay", "parameters": "key: below the threshold = too weak to quantify, mostly under pKd 3.1 to 4", "settings": "plain residues with an end cap or a label only (N-terminal biotin on a linker: ado-ado)"}
{"binder": "EAVTVESTSL", "note": "[SLC22A11, Q9NSA0]", "pKd": "below the threshold"}
{"molecular_target": "LNX1_1, Q8TBB1", "sequence (Q8TBB1 261-371)": "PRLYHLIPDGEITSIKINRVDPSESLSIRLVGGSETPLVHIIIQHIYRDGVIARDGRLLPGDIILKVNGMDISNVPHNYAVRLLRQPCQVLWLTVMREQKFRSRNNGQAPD", "assay": "holdup assay", "parameters": "key: below the threshold = too weak to quantify, mostly under pKd 3.1 to 4", "settings": "plain residues with an end cap or a label only (N-terminal biotin on a linker: ado-ado)"}
{"binder": "EAVTVESTSL", "note": "[SLC22A11, Q9NSA0]", "pKd": 3.5}
{"molecular_target": "MAGI2_2, Q86UL8", "sequence (Q86UL8 410-522)": "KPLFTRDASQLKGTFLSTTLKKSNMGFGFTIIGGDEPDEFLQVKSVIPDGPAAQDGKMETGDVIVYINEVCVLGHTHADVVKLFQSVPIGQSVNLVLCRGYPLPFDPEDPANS", "assay": "holdup assay", "parameters": "key: below the threshold = too weak to quantify, mostly under pKd 3.1 to 4", "settings": "plain residues with an end cap or a label only (N-terminal biotin on a linker: ado-ado)"}
{"binder": "EAVTVESTSL", "note": "[SLC22A11, Q9NSA0]", "pKd": "below the threshold"}
{"molecular_target": "MAGI2_6, Q86UL8", "sequence (Q86UL8 1141-1229)": "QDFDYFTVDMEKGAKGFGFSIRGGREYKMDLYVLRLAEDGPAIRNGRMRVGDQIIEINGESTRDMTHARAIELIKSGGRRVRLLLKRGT", "assay": "holdup assay", "parameters": "key: below the threshold = too weak to quantify, mostly under pKd 3.1 to 4", "settings": "plain residues with an end cap or a label only (N-terminal biotin on a linker: ado-ado)"}
{"binder": "EAVTVESTSL", "note": "[SLC22A11, Q9NSA0]", "pKd": 4.2}
{"molecular_target": "MAST2, Q6P0Q8", "sequence (Q6P0Q8 1099-1202)": "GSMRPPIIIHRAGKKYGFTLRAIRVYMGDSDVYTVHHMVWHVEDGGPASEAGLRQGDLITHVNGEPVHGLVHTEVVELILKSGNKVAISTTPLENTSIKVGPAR", "assay": "holdup assay", "parameters": "key: below the threshold = too weak to quantify, mostly under pKd 3.1 to 4", "settings": "plain residues with an end cap or a label only (N-terminal biotin on a linker: ado-ado)"}
{"binder": "EAVTVESTSL", "note": "[SLC22A11, Q9NSA0]", "pKd": 5.9}
{"molecular_target": "T6, MPDZ_12, O75970", "T6 sequence (O75970 1857-1958, limits assumed, looked up)": "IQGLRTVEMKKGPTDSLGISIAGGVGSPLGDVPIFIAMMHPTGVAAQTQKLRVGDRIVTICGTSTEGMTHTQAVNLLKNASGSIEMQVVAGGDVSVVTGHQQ", "assay": "holdup assay", "parameters": "key: below the threshold = too weak to quantify, mostly under pKd 3.1 to 4", "settings": "plain residues with an end cap or a label only (N-terminal biotin on a linker: ado-ado)"}
{"binder": "EAVTVESTSL", "note": "[SLC22A11, Q9NSA0]", "pKd": "below the threshold"}
{"molecular_target": "NHERF2_2, Q15599", "sequence (Q15599 142-238)": "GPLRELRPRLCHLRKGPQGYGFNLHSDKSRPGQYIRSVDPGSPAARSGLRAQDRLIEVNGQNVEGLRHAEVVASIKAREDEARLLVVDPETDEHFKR", "assay": "holdup assay", "parameters": "key: below the threshold = too weak to quantify, mostly under pKd 3.1 to 4", "settings": "plain residues with an end cap or a label only (N-terminal biotin on a linker: ado-ado)"}
{"binder": "EAVTVESTSL", "note": "[SLC22A11, Q9NSA0]", "pKd": 5.45}
{"molecular_target": "NHERF4_4, Q86UT5", "sequence (Q86UT5 464-550)": "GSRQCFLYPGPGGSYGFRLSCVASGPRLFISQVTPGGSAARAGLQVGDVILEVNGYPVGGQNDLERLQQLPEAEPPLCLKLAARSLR", "assay": "holdup assay", "parameters": "key: below the threshold = too weak to quantify, mostly under pKd 3.1 to 4", "settings": "plain residues with an end cap or a label only (N-terminal biotin on a linker: ado-ado)"}
{"binder": "EAVTVESTSL", "note": "[SLC22A11, Q9NSA0]", "pKd": "below the threshold"}
{"molecular_target": "T7, PCLO, Q9Y6V0", "T7 sequence (Q9Y6V0 4491-4600, limits assumed, looked up)": "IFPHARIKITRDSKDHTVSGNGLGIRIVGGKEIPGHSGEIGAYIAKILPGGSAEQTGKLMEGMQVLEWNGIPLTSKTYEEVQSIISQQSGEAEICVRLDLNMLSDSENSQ", "assay": "holdup assay", "parameters": "key: below the threshold = too weak to quantify, mostly under pKd 3.1 to 4", "settings": "plain residues with an end cap or a label only (N-terminal biotin on a linker: ado-ado)"}
{"binder": "EAVTVESTSL", "note": "[SLC22A11, Q9NSA0]", "pKd": "below the threshold"}
{"molecular_target": "T8, PTPN13_1, Q12923", "T8 sequence (Q12923 1088-1188, limits assumed, looked up)": "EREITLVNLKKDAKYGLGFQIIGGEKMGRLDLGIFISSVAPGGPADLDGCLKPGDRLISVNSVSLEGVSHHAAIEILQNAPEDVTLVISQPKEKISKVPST", "assay": "holdup assay", "parameters": "key: below the threshold = too weak to quantify, mostly under pKd 3.1 to 4", "settings": "plain residues with an end cap or a label only (N-terminal biotin on a linker: ado-ado)"}
{"binder": "EAVTVESTSL", "note": "[SLC22A11, Q9NSA0]", "pKd": "below the threshold"}
{"molecular_target": "T9, SHANK1, Q9Y566", "T9 sequence (Q9Y566 658-767, limits assumed, looked up)": "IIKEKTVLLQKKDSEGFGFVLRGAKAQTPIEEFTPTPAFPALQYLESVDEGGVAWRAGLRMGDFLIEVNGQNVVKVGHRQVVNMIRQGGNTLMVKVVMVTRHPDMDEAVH", "assay": "holdup assay", "parameters": "key: below the threshold = too weak to quantify, mostly under pKd 3.1 to 4", "settings": "plain residues with an end cap or a label only (N-terminal biotin on a linker: ado-ado)"}
{"binder": "EAVTVESTSL", "note": "[SLC22A11, Q9NSA0]", "pKd": 5.68}
{"molecular_target": "T10, TX1BP3, O14907", "T10 sequence (O14907 10-122, limits assumed, looked up)": "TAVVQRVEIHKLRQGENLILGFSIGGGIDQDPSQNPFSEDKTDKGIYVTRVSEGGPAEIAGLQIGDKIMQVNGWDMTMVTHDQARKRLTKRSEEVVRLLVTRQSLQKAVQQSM", "assay": "holdup assay", "parameters": "key: below the threshold = too weak to quantify, mostly under pKd 3.1 to 4", "settings": "plain residues with an end cap or a label only (N-terminal biotin on a linker: ado-ado)"}
{"binder": "EAVTVESTSL", "note": "[SLC22A11, Q9NSA0]", "pKd": 4.25}
